Measured values from the nanobody polyreactivity screen of Harvey et al. (2022).

Assay: yeast display, Sf9 membrane polyspecificity reagent, FACS + sequencing; frameworks hold sequencing errors
How it was run: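 Using colony PCR, genes from sorted yeast display clones were amplified, then sequenced on MiSeq at 2 × 250 and filtered by CDR length. The clones had been stained with 10% biotinylated, detergent-solubilized Sf9 membrane reagent for 1 hour at 4 °C and sorted by FACS into low and high (top ~1%) gates on anti-HA and streptavidin fluorescence. Polyreactivity labels come from the gate of origin.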

Sequence | polyreactivity (PSR sort gate)
QVQLVESGGGLGQAGGSLRLSCAASGFTFPWYAMGWYRPAPGKERELVASISYRGDSTYYADSVKGRFTISRDNAKNTVYLEMNSLKPEDTAVYYCNNSLASYYLPGFDYWGQGTQVTVSS | low polyreactivity
QVQLVESGGGLGQAGGSLRLSCAASGFTFRYYAMGWSRQAPGKERELVAAITGSGGRTYYADSVKGRFTISRDNAKNTVYLQKNSLKPEDSAVYYCARDVDPRGRYYWGQGTQVTVSS | high polyreactivity
QVQLVESGGGLGQAGGSLRLSCAASGRIFAGYAMGWYRQAPGKERELVAAISWSGSSTHYADSVKGRFTISRDNAKNTVYFQMNSLKPEDTAVYYCAADLKDTRLFPWFFEYDYWGQGTQVTVSS | low polyreactivity
QVQLVESGGGLGQAGGSLRLSCAASGRIFRGYAMGWYRQAPGTDRELVATISAIGGSTYADSVKGRFTIARDNAKNTVYLQMNSLKPEDTAVYYCNKVHFRPRYFLRSDYWGQGTQGTVSS | high polyreactivity
QVQLVESGGGLGQAGGSLRLSCAASGRIFRYNAMGWYRQAPGKDRELVAVITSRGGRTYYADSVKGRFTLSRDNAKNTVYLQMTSLKPEDSAVYYCTATYSGRGSTYWSGYDYWGQGTQVTVSS | high polyreactivity
QVQLVESGGGLGQAGGSLRLSCAASGRTLGIYAMGWYRQAPGKERELVAAITWSGGSTYYADSVKGRFTISRDNAKNTVYLQMNSLKPEDTAVYYCNVRSGGKRRNSGRVDYWGQGTQVTVSS | low polyreactivity
QVQLVESGGGLGQAGGSLRLSCAASGSIFAVNAMGWYRPAPGKERELVAGINSSGGSTHYADSVKGRFTISRDNAKNTVYFQMNSLKPEDTAVYYCAADWLRPAYYAVASLVKSDYWGQGTQVTVSS | low polyreactivity
QVQLVESGGGLGQAGGSLRLSCAASGSIFGRYTMGWYRQAPGKERELVAAITLRGGSTYYADSVKGRFTISRDNAKNTVYLQMNSLKPEDTAVYYCATDGWKQSAYDYWGQGTQVTVSS | low polyreactivity
QVQLVESGGGLGQAGGSLRLSCAASGSIFSAYAMGWYRPAPGKERELVAGISKRGGSTYYADSVKGRFTISRDNAKNTVYLQMNSLKAEDTAVYYCTAARYTVVTKLFDYWGQGTQVTVSS | high polyreactivity
QVQLVESGGGLGQAGGSLRLSCAASGSNFRPYAMGWYRPAPGKERELVAAISSSGGSTYYADSVKGRFTISRDNAKNTVYLQMNSLKPEDTAVYYCAAVSRSTWIHSRDYWGQGTQVTVSS | low polyreactivity
QVQLVESGGGLGQAGGSLRLSCAASGSTFKFYAMGWYRHAPGKERELVATISWTGGSTYYADSVKGRFTISRDNAKNTVYLQTNSLKPEDTAVYYCANRKTSYPVIWYTVNGRHYYWGQGTQVTVSS | low polyreactivity
QVQLVESGGGLGQAGGSLRLSCAASGSTFYLNAMGWYRQATGKERELVAAINSGDSTNYADSVKGRFTISRDNAKNTVYLQMNSLKPEDTAVYYCARDRFPSEGDYWGQGTQVTVSS | low polyreactivity
QVQLVESGGGLGQAGGSLRLSCAASGSTFYRNAMGWYRPAPGKERELVAAISGSDGSTYYADSVKGRFTISRDNAKNTVYLQMNSLKPEDTAVYYCVVAYARKYYYWGQGTQVTVSS | high polyreactivity
QVQLVESGGGLGQAGGSLRLSCAASGSTLNYYAMGWYTQAPGKERELVAAITWSGGSTSYADSVKGRFTISRDNAKNTVYLQMNSLKPEDTAVYYCATDFPTVQLYDTDWLSSDMGYWGQGTQVTVSS | low polyreactivity
QVQLVESGGGLGQAGGSLRLSCAASGYTFGKYAMGWYRPAPGKERELVAAISWSGGSTYYADSVKGRFTISRDNAKNTVYLQMNSLKPEDTAVYYCNIGYIGRYGYWGQGTQVTVSS | high polyreactivity
QVQLVESGGGLGQAGGSLRLSCADSGRTFYKYAMGWYRQSPGKERDLVAAISGSGGSTFYADSVKGRFTISRDNAKNTVYLQMNSLKPEDTAVYYCAKYLRPRIGYRYYYWVQGTQVTVSS | high polyreactivity
QVQLVESGGGLGQAGGSLRLSSAASGFTFRRNAMGWYRQAPGKERELVAAINVRDGSTYYADSVKGRFTISRDNAKNTVYLQMNSLKPEDTAVYYCAAEFFQGYYWYYYWGQGTQVTVSS | high polyreactivity
QVQLVESGGGLGQAGGSLRLSTAASGSNFRYNTMGWYRLGPGKERELVAAINISSSSTYYADSLKGRFTISRDNAKNTVYLQMNSLKPEVTAVYYCANRDYVPIATYENDDYWGQGTQVNVSS | low polyreactivity
QVQLVESGGGLGQAGGSLRVSCAASGGTLYYYAMGWYRQARGKERELVADITNSGSTNYADAVKGRFTISRDNAKNTVYLQMNSLKPEDTAVYSCAAAFSRRYDWGQGTQVTVSS | high polyreactivity
QVQLVESGGGLGQAVGRLRLSCAASGGTFPQYAMGWYRQAPGKEREFVADITSRGGTTYYADSVQGRFTISRDNAKNTVYLQMNSLKPEDTAVYYCAADNPADWWGLDYWGQGTQVTVSS | low polyreactivity
QVQLVESGGGLLHAGGSLRLSCAASGLIFSDYVMGWYRQAPWKERELVAGITTGGSTKYADSVKWRFTISRDNAKTTVYLQMNSLKPEDTAVYYCAVGKYNYRGSWDYYWGQGTQVTLSS | high polyreactivity
QVQLVESGGGLLQAGGILRLSCAASGFTFKYYVMGWYRQAPGKERELDAAITSSGSTYYADSVKGRFTISRDNAKNTVYLQINRLKPEDSAVYYCAAEGQSWQRWRYNYWGQGTQVTVSS | high polyreactivity

Sequence | polyreactivity (PSR sort gate)
QVQLVESGGGLLQAGGSLPLSCPASGRIFYSYAMGWYRQAPGKERELVAGINWRGSNTYYADSVKGRFTISRDNAKNTVYFQMNSLKPEDTAVYYCSATYYQERRRGYWGQGSQVTVSS | high polyreactivity
QVQLVESGGGLLQAGGSLRFSWAASGFIFIINPMGWYRQAPGKERELVAGIRWSGGYKYYADSVKGRFTISRDNEKNTVYLQINSLKPEDTAVYYCNKDRGSLTLYTYDYWGQVTQVTVSS | low polyreactivity
QVQLVESGGGLLQAGGSLRISCAASGITFVYYVMGWYRQAPRKERELVAGISSGGSTYYADSVKGRFTISRDNAKNTVYLQMISLKPEDTAVYYCNAVDTYGLWRRYNYWGQGTQVTVSS | high polyreactivity
QVQLVESGGGLLQAGGSLRLICAASGRIFQTYAMGWYRQAPGKERELVARIRLSGGSTYSADSVKGRFTISRDNAKNTGYLQKNSQKPEDTAVYSCAARFSRARFTDPYYYWGQGTQVTVSS | high polyreactivity
QVQLVESGGGLLQAGGSLRLICAASGSIFGANTMGWYRPAPGKERELVAGITSGARTYYADSVKGRFTMSRDNAKNTVYLQMNSLQPEDTAVYYCAANYAWRRYGYWGNGTQVTVSS | high polyreactivity
QVQLVESGGGLLQAGGSLRLSCAASGFIFGRNAMGWYRQAPGKERELVAAITRSGGSTYYADSVKGRFTISRDNAKNTVYLQMISLKTEDTAVYYCAKGDFYWGVFRVGIRDDYWGQGTQVNVSS | high polyreactivity
QVQLVESGGGLLQAGGSLRLSCAASGFTIQRYAMGWYRQAPGKERELVAAITSGGSTYYADSVKGRFTISRDNAKNTVYLQMNSLKPEDTAVYYCATRAVWSSWGRRYDSWGQGTQVTVSS | high polyreactivity
QVQLVESGGGLLQAGGSLRLSCAASGIIFGRYTMGWYRKAPGKETELVAAITSSGITYYADSVKGRFTISRDNAKNTVYLQMNSLKPEDTAVYYCYADYSIPGYYWPYDYWGQGTQVTVSS | low polyreactivity
QVQLVESGGGLLQAGGSLRLSCAASGRIFIANAMGWNRQAPRKERDLVAAITSDGGTNYADSVKGRFTISRDNAKITVYLQLISLKPEDTAVYYCAATYQIGYYYVWEYDYWGQGTQLTVSS | low polyreactivity
QVQLVESGGGLLQAGGSLRLSCAASGRIFPYYAMGWYRQAPGKERVLLAAISQSGGRTYYADSVKGRFTISRDNAKNTVFLQMNSLKPEDTAVYYCNADTYSSGYDYWGQGTQVTVSS | high polyreactivity
QVQLVESGGGLLQAGGSLRLSCAASGRIYSIYAMGWYRQAPGKERELVASITGSGGTTYYADSVKGRFTISRDIAKNTVYLQMNSLKPEDTAVYYCAAVFYGFVGYYNEDYWGQGSQVTVSS | low polyreactivity
QVQLVESGGGLLQAGGSLRLSCAASGRTFLGYAMGWYIQAPGKERELVAAISWDGTSTYYADSLKGRFTISRDNAKNTVYLPMNSLKPEDTAVYYCAAQLTDYQSKTLSYDYWGQGTQVTVSS | low polyreactivity
QVQLVESGGGLLQAGGSLRLSCAASGRTFRAYTMGWYRQAPGKERELVAAISTPGGSTYYADSVKGRFTISRDNAKNTVYLQMNSLKPEDSAVYYCAAGTFYYWLSYDYWGQGTQVTVSS | low polyreactivity
QVQLVESGGGLLQAGGSLRLSCAASGRTFYHYTMGWYRQAPGKERELVARITRRVGSTYYADSVKGRFTISRDNAKNIVYLQMNSLKPEDTAVYYCNSKSGVYRYLLDYWGQGTQVTVSS | high polyreactivity
QVQLVESGGGLLQAGGSLRLSCAASGRTIVQNAMGWYRQAPGKERELVASIRYRDGSTYYADSVKGRFTISRDNAKNTVYLQMNSLKTEDTAVYYCAVRYYRKYYYSPFDYWGQGTQVTVSS | high polyreactivity
QVQLVESGGGLLQAGGSLRLSCAASGSIFGDNAMVWYRQAPWKERDLVATISSSDASTYYADSVKGRFTISRDNAKNTVNLQMNSLKPEDTAVYYCAKEVTAGYHVWYDYWGQGTQVTVSS | low polyreactivity
QVQLVESGGGLLQAGGSLRLSCAASGSIFGQYAMGWYIQAPGKERELVAAISTRGGSTRYADSVKGRFTISRDNAKNTVYLQMNSLKPEDTAVYYCAARVPYIRHLAVDYWGQGTQVTVSS | high polyreactivity
QVQLVESGGGLLQAGGSLRLSCAASGSIFGSYVMGWYRQAPGKERELVAAITASGGSTYYADSVKGRFTISRDTAKNTVYLQMNSLKPEDTAVYYCATKRTWPVGEMYYWGQGTQVTVSS | high polyreactivity
QVQLVESGGGLLQAGGSLRLSCAASGSIFRRNAMGWYRQAPGKERELVAAIRRGGSTNYADSVKGRFTISRDNAKNTVYLQMNSLKPEDTAVYYCAARGGSSGFYYWGQGTQVTVSS | high polyreactivity
QVQLVESGGGLLQAGGSLRLSCAASGSIFTYYAMGWYRQAPGKEREFVAAINYGGGSTYYADSVKGRFTISRDNAKNTVYLQMNSQKPEDTAVYYCNARTFGPNGKHRYGYWGQGTQVSVSS | high polyreactivity
QVQLVESGGGLLQAGGSLRLSCAASGSIIFYYAMGWYRQAPGKEREFVAAITRSGVRTYYADSGKGRFTISRDNAKNTVYLQMNSLKPEDNAVYYCHADYGFYRPVLMGYWGQGTQVTVSS | low polyreactivity
